# T1: His-CARK1-KD (CARK1 kinase domain, residues 50-353) (Arabidopsis thaliana, UniProt Q9LUT0 50-353)
# T1 construct: Cytosolic ABA Receptor Kinase 1 (CARK1), Arabidopsis, kinase domain, residues 50-353; also called Cytosolic ABA Receptor Kinase 1 kinase domain; source: E. coli Rosetta (DE3), purified as previously described (Zhang et al., 2018)
# T1 sequence (looked up): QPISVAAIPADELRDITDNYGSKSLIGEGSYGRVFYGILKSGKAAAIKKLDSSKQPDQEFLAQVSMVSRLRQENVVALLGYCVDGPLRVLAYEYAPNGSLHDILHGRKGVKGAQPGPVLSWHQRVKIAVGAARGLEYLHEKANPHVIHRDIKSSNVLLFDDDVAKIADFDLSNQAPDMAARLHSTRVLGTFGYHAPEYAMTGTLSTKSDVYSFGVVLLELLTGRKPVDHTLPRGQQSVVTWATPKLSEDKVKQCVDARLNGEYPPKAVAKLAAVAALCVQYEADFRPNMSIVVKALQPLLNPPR
# B1: GST-RCAR12 (receptor, Arabidopsis thaliana, UniProt Q8VZS8 1-221, looked up)
# chain: MANSESSSSPVNEEENSQRISTLHHQTMPSDLTQDEFTQLSQSIAEFHTYQLGNGRCSSLLAQRIHAPPETVWSVVRRFDRPQIYKHFIKSCNVSEDFEMRVGCTRDVNVISGLPANTSRERLDLLDDDRRVTGFSITGGEHRLRNYKSVTTVHRFEKEEEEERIWTVVLESYVVDVPEGNSEEDTRLFADTVIRLNLQKLASITEAMNRNNNNNNSSQVR
# notes: ABA receptor RCAR12 (PYL1), Arabidopsis, subfamily III; also called PYL1; source: E. coli Rosetta (DE3), purified as GST-tag protein; not shown: GST, N-terminal, kept
# B2: GST-RCAR14 (receptor, Arabidopsis thaliana, UniProt O80992 1-190, looked up)
# chain: MSSSPAVKGLTDEEQKTLEPVIKTYHQFEPDPTTCTSLITQRIHAPASVVWPLIRRFDNPERYKHFVKRCRLISGDGDVGSVREVTVISGLPASTSTERLEFVDDDHRVLSFRVVGGEHRLKNYKSVTSVNEFLNQDSGKVYTVVLESYTVDIPEGNTEEDTKMFVDTVVKLNLQKLGVAATSAPMHDDE
# notes: ABA receptor RCAR14, Arabidopsis, subfamily III; source: E. coli Rosetta (DE3), purified as GST-tag protein; not shown: GST, N-terminal, kept
# B3: GST-RCAR13 (receptor, Arabidopsis thaliana, UniProt Q9SSM7 1-209, looked up)
# chain: MNLAPIHDPSSSSTTTTSSSTPYGLTKDEFSTLDSIIRTHHTFPRSPNTCTSLIAHRVDAPAHAIWRFVRDFANPNKYKHFIKSCTIRVNGNGIKEIKVGTIREVSVVSGLPASTSVEILEVLDEEKRILSFRVLGGEHRLNNYRSVTSVNEFVVLEKDKKKRVYSVVLESYIVDIPQGNTEEDTRMFVDTVVKSNLQNLAVISTASPT
# notes: ABA receptor RCAR13, Arabidopsis, subfamily III; source: E. coli Rosetta (DE3), purified as GST-tag protein; not shown: GST, N-terminal, kept
# Target: T1, His-CARK1-KD (CARK1 kinase domain, …)
# Assay: pull-down; GST-RCARs bound to glutathione Sepharose 4B resin; His-CARK1-KD or His-CARK1-KD^N204A co-incubated 1 h at room temperature; 50 ug of each protein; SDS-PAGE and anti-His blot
# Settings: both partners purified
row,binding result,Binder
1,binds,B1
2,binds,B2
3,binds,B3
